The results in this text go back to patent publication US20200239529A1.

This assay addresses CXCR4 (human) (UniProt P61073). In words: cell-based or functional assay.
Sequence of UniProt P61073 (P61073 whole entry): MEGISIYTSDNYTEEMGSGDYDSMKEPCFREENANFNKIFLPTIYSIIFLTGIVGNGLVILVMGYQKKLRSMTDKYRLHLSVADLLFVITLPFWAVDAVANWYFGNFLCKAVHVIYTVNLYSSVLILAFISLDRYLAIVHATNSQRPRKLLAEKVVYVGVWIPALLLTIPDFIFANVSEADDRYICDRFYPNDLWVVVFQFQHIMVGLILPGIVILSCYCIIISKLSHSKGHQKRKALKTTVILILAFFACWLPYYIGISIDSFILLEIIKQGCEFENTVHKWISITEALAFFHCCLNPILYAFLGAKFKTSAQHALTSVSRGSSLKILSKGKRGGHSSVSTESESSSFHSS

For T22-PE24-H6, the IC50 of killing cultured HeLa cells came to 0.99 nM. Under “T22-DITOX-H6 (from UniProt P00587 26-411)” stands 0.78 nM.
